The target in experiment [1] is T1, endogenous CBX7 (from cells / lysate) (human, UniProt O95931 1-251).
T1 sequence (looked up): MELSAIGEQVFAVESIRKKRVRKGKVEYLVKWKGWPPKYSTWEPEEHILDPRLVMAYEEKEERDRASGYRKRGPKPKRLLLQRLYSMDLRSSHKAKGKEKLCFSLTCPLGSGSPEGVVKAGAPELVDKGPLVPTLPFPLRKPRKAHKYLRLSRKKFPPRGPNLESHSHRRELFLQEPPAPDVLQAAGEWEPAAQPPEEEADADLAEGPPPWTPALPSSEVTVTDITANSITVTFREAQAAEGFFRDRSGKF
As to the kind of experiment: chemoprecipitation from HEK293T nuclear lysate, immunoblot. (Immunoblotting shows a protein as a band on a membrane.)

For experiment [2], the target named is T2, endogenous CBX6 (HEK293T nuclear lysate) (human, UniProt O95503 1-412).
T2 sequence (looked up): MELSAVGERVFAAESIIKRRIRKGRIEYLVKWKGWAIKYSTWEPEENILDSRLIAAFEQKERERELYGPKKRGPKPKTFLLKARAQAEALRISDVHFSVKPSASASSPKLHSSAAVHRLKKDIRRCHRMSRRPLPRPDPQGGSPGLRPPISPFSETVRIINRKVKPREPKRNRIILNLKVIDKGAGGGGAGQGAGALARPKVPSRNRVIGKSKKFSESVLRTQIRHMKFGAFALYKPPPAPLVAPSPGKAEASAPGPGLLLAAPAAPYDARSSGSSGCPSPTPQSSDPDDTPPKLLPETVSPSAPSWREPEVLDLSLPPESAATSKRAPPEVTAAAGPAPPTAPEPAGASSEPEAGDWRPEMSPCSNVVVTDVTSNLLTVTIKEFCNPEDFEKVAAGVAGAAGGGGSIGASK
The description is as above.

Experiment [3] addresses T3, endogenous CBX4 (HEK293T nuclear lysate) (human, UniProt O00257 1-560, limits assumed).
T3 construct: Meant by 'any other paralogs' in the pulldown text
T3 sequence (looked up): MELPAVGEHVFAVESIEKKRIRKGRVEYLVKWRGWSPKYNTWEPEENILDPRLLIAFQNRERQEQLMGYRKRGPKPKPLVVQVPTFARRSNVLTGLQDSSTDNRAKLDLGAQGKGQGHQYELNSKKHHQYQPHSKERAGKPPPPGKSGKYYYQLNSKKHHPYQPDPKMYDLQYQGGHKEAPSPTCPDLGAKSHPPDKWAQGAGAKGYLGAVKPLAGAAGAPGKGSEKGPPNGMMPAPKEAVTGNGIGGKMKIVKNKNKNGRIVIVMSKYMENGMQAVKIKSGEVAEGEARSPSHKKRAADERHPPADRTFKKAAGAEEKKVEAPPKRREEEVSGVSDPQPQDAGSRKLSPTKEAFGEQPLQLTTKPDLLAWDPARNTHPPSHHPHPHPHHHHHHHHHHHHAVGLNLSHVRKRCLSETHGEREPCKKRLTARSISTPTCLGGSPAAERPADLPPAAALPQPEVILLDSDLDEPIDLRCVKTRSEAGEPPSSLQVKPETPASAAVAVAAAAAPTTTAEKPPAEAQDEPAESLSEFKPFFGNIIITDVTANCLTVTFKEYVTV
The experiment is described as above.

The target in experiment [4] is T4, BRG1 (endogenous, HEK293T nuclear lysate) (human, UniProt P51532 1-1647).
T4 construct: Non-specific control of the chemoprecipitation
T4 sequence (P51532 whole entry): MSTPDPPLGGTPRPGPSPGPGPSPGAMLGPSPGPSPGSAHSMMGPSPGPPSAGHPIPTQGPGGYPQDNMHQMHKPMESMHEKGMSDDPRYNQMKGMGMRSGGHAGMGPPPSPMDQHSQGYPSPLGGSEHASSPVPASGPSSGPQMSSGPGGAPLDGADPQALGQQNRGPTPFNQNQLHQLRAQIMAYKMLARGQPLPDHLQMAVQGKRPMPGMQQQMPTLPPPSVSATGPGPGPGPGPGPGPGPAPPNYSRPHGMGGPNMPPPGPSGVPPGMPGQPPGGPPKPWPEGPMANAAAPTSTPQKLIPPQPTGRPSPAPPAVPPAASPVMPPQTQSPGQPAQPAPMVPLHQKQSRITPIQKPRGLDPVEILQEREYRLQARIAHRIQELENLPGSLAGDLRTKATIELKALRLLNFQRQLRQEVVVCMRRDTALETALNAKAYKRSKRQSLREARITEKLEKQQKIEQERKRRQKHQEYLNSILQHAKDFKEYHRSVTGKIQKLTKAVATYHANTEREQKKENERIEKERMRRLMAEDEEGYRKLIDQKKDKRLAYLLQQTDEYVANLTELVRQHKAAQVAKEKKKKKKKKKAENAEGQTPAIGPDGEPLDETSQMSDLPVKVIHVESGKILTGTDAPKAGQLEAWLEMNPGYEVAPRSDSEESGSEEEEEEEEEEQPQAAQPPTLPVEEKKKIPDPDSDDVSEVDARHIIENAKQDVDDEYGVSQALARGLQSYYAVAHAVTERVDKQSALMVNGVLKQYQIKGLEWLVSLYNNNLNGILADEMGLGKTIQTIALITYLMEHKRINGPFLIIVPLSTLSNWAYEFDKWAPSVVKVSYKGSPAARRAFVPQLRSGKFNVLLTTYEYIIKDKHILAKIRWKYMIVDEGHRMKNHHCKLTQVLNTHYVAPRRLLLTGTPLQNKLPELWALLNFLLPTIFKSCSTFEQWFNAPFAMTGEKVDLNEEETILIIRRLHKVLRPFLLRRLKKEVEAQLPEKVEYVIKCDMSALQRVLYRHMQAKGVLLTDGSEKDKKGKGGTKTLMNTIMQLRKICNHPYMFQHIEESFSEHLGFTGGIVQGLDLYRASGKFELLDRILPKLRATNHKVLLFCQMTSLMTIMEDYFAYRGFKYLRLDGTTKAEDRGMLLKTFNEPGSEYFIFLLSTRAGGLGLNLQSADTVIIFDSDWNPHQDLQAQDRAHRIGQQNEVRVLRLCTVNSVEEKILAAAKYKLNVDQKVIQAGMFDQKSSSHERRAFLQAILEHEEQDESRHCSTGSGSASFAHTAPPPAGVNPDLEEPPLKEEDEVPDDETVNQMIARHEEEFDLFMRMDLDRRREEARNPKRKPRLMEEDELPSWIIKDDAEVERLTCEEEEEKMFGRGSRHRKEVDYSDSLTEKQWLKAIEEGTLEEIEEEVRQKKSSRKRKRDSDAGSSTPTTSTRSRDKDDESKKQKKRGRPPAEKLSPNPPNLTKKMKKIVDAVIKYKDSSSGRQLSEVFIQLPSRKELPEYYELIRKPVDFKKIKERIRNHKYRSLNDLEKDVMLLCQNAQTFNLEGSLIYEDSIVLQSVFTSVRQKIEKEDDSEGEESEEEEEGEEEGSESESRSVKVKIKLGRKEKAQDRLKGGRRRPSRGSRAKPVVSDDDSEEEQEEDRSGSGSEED
Described as above.

Experiment [5] has as its target T5, CBX8 chromodomain (CBX8 ChD), N-terminal His6-tagged recombinant protein (UniProt Q9HC52 8-61, limits assumed).
T5 construct: domain: chromodomain; not shown: N-terminal His6 tag
T5 sequence (looked up): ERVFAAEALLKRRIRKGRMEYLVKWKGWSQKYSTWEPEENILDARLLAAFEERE
The experiment can be described thus: direct fluorescence polarization; reference CBX2 ChD; CBX8 is the closest paralog by Table 3.

Experiment [6] addresses T6, CBX6 chromodomain (CBX6 ChD), N-terminal His6-tagged recombinant protein (UniProt O95503 8-65, limits assumed).
T6 construct: domain: chromodomain; not shown: N-terminal His6 tag
T6 sequence (looked up): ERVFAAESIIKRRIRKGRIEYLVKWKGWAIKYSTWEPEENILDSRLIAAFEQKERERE
As to the kind of experiment: direct fluorescence polarization, fluorescein-conjugated ligand. (Polarisation of emitted light reports the rotation of a fluorescent probe.)

Experiment [7] deals with T5, CBX8 chromodomain (CBX8 ChD), …. Described as above.
Experiment [8] addresses T7, CBX7 chromodomain (CBX7 ChD), N-terminal His6-tagged recombinant protein (UniProt O95931 8-62, limits assumed).
T7 construct: domain: chromodomain; not shown: N-terminal His6 tag
T7 sequence (looked up): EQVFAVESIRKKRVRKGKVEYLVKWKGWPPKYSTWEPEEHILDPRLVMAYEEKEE
As to the kind of experiment: direct fluorescence titration of KED97L-FL; reference CBX8 ChD.

The target of experiment [9] is T6, CBX6 chromodomain (CBX6 ChD), …. As to the kind of experiment: direct fluorescence polarization, FAM-labelled ligand at 100 nM, ChD titrated.
For experiment [10], the target named is T8, CBX4 chromodomain (CBX4 ChD), N-terminal His6-tagged recombinant protein (UniProt O00257 8-65, limits assumed).
T8 construct: domain: chromodomain; not shown: N-terminal His6 tag
T8 sequence (looked up): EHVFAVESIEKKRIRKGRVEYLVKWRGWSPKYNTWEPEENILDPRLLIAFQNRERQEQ
The description is as above.

The target in experiment [11] is T9, CBX2 chromodomain (CBX2 ChD), N-terminal His6-tagged recombinant protein (UniProt Q14781 9-66, limits assumed).
T9 construct: domain: chromodomain; Expressed in E. coli and purified on Ni-NTA; not shown: N-terminal His6 tag
T9 sequence (looked up): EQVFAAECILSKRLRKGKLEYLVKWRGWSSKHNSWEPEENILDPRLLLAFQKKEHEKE
The description is as above.

In experiment [12] the target is T5, CBX8 chromodomain (CBX8 ChD), …. The description is as above.
Experiment [13] deals with T7, CBX7 chromodomain (CBX7 ChD), …. The description is as above.
The target of experiment [14] is CBX8 chromodomain (CBX8 ChD), N-terminal His6-tagged recombinant protein (UniProt Q9HC52). As to the kind of experiment: competitive fluorescence polarization, displacement of FITC-labelled probe.
Experiment [15] concerns the target CBX7 chromodomain (CBX7 ChD), N-terminal His6-tagged recombinant protein (UniProt O95931). The description is as above.
Experiment [16] deals with CBX6 chromodomain (CBX6 ChD), N-terminal His6-tagged recombinant protein (UniProt O95503). Described as above.
The target in experiment [17] is CBX4 chromodomain (CBX4 ChD), N-terminal His6-tagged recombinant protein (UniProt O00257). The experiment can be described thus: competitive fluorescence polarization (FP) assay, displacement of the FITC-labelled probe.
Experiment [18] addresses CBX2 chromodomain (CBX2 ChD), N-terminal His6-tagged recombinant protein (UniProt Q14781). Described as above.
Experiment [19] has as its target T6, CBX6 chromodomain (CBX6 ChD), …. The experiment is described as above.
In experiment [20] the target is T8, CBX4 chromodomain (CBX4 ChD), …. Described as above.
Experiment [21] deals with T9, CBX2 chromodomain (CBX2 ChD), …. The experiment is described as above.
The target of experiment [22] is T5, CBX8 chromodomain (CBX8 ChD), …. The description is as above.
The target of experiment [23] is T7, CBX7 chromodomain (CBX7 ChD), …. Described as above.
In experiment [24] the target is T9, CBX2 chromodomain (CBX2 ChD), …. As to the kind of experiment: Thermal Shift Assay of the non-derivatized ligand.
For experiment [25], the target named is T5, CBX8 chromodomain (CBX8 ChD), …. The experiment can be described thus: method not given.

Square brackets hold non-standard residues; d marks the D form. Primed or numbered codes have the meaning given here. Ends that are not written are not given here. * marks the point of attachment. triazole = triazole formed by click reaction joining the C-terminal propargylamide to 5/6-carboxyfluorescein; Isoxazole3carbonyl(5-Me) = Cc1cc(C(=O)*)no1; Tyr(3-Cl) = N[C@@H](Cc1ccc(O)c(Cl)c1)C(=O)O; Lys(Me3) = C[N+](C)(C)CCCC[C@H](N)C(=O)O; Lys(Et2) = CCN(CC)CCCC[C@H](N)C(=O)O; triazole″ = not defined here; PEG4′ = not defined here; NH(propargyl) = C#CCN*

Turning to PI[Lys(Et2)]S-{PEG4′-biotin} (also: Pro1 alpha-amino modified, group not given here, non-natural monomers) [SW2_152F-B (biotinylated SW2_152F)], the binding result in experiment [1] is recorded as “no binding”; in [2], “no binding”; in experiment [3], “binds”; in experiment [4], “no binding”.

B1: SW2_152F-FL (library#77) (peptide)
peptide: PI[Lys(Et2)]S
modifications: not fully specified (C-terminus); also: Pro1 alpha-amino modified, group not given here (non-natural monomer)
notes: also called fluorescein-conjugated SW2_152F
For orientation: Kd means the free concentration of one partner at which half of the binding sites on the other are occupied at equilibrium, for simple one-to-one binding. For the molecule B1, the “selectivity for CBX2 over the other paralogs (fold)” value in experiment [5] was at least 24 fold. In addition, the dissociation constant Kd was determined as 9 µM in experiment [6] and 1.9 µM in [7].

B2: KED97L-FL (peptide)
peptide: {Isoxazole3carbonyl(5-Me)}-[Tyr(3-Cl)]VI[Lys(Et2)]S-{NH(propargyl)-triazole-5/6‑FAM}
notes: also called 97L fluorescein derivative; KED97L (as measured)
Turning to B2, the “selectivity for CBX8 ChD over CBX7 ChD (fold)” value in experiment [8] came to 20 fold. The equilibrium dissociation constant (Kd) is 0.26 µM in experiment [9]; 2.7 µM in [10]; 1.1 µM in experiment [11]; 0.24 µM in experiment [12]; 4.7 µM in experiment [13].

One may read the IC50 as the concentration that gives 50% inhibition. As to [Tyr(3-Cl)]PIK(trimethyl)S-NH2 (also: N-terminal acylation, acyl group not given here) [KED98 (PP)], the IC50 in [14] was found to be 14 µM; in [15] it was 83 µM; in experiment [16] it was 34 µM; in experiment [17] it was 173 µM; in experiment [18] it was 46 µM.

B3: KED97 (peptide)
peptide: {Isoxazole3carbonyl(5-Me)}-[Tyr(3-Cl)]VI[Lys(Me3)]S-NH2
notes: Final PSL1 ligand with combined synthons
For B3, the IC50 in experiment [19] was found to be 4.4 µM; in experiment [20] it was 49 µM; in [21], 21 µM; in [22], 9.5 µM; in experiment [23], 60 µM.

B4: SW2_152F (peptide)
peptide: PI[Lys(Et2)]S-{NH(propargyl)}
modifications: also: Pro1 alpha-amino modified, group not given here, non-natural monomers
notes: Non-derivatized ligand, used in the Thermal Shift Assay and in cells; also called CBX2i
Regarding B4, the dissociation constant (Kd) in experiment [24] worked out at 0.11 µM.

Consider {Isoxazole3carbonyl(5-Me)}-[Tyr(3-Cl)]VI[Lys(Et2)]S-{NH(propargyl)-triazole″-PEG2‑chloroalkane} (reading uncertain) [KED97L-CA (chloroalkane-modified KED97L)], for which the dissociation constant Kd in experiment [25] turned out to be 0.4 µM.

Source of the values: patent publication US20210284691A1, “CBX8 CHROMDOMAIN INHIBITORS AND THE USES THEREOF” (Purdue Research Foundation, priority 2019, published 2021).
